Tests used:
[1] = test system: 32Dcl3-NR2F6 cells; test: G-CSF induced differentiation of NR2F6 over-expressing cells after HDAC inhibitor pretreatment (cell surface CD11b); assay type: cell-based, mouse; conditions: pretreatment prior to G-CSF; non-treated 32Dcl3-NR2F6 cells failed to differentiate; FIG. 32
Description: It has been reported that NR2F6 exerts its regulatory effects primarily as a transcriptional repressor (Liu, X., Huang, X., and Sigmund, C. D. (2003). Identification of a nuclear orphan receptor (Ear2) as a negative regulator of renin gene transcription. Circ Res 92, 1033-1040.). The repressor activity of nuclear receptors is mediated by recruitment of corepressors with histone deacetylase (HDAC) activity; we therefore evaluated the importance of this mechanism in the effects of NR2F6 on haematopoiesis and evaluated weather the activity of NR2F6 can be modulated with an HDAC inhibitor. 32Dcl3-NR2F6 cells were incubated with the non-specific histone deacetylase inhibitor sodium butyrate prior to treatment with G-CSF.

[2] = test system: U937 GFP cells; test: Cell cycle analysis by propidium iodide DNA content after atRA; assay type: cell-based, human; conditions: control U937 GFP cells; FIG. 3B
Description: Differentiation was induced in the U937 cell line by treatment with 10 nM TPA (Sigma), 1 uM ATRA (Sigma), or 1.25% v/v DMSO (Sigma) respectively. Immunostaining for the maturation marker CD11b (eBioscience) was performed for twenty minutes in the dark according to manufacturer's instructions and cells were analysed by flow cytometry. Nitroblue tetrazolium (NBT) reduction test (Sigma) was performed according to the manufacturer's instructions, with a minimum of 300 cells scored per slide in three different fields of view. Each experimental timepoint was conducted in triplicate.
Overexpression of NR2F6 is able to override the growth arrest associated with differentiation and maturation, in particular maturation and differentiation induced by all-trans retinoic acid (FIG. 3). […] Growth of U937 cells expressing either GFP of NR2F6-IRES-GFP was monitored by counting using trypan blue following treatment of cells with atRA (FIG. 3A). U937 cells expressing either GFP of NR2F6-IRES-GFP were treated with atRA. DNA content was assessed using propidium iodide in order to determine which phase of the cell cycle the cells in each respective population resided in (FIG. 3B).

[3] = test system: 32Dcl3 mouse hematopoietic cells; test: shRNA knock down of NR2F6, differentiation by cytospins and flow cytometry; assay type: cell-based; conditions: vs pSiren universal negative control, FIG. 26
Description: Knock down of NR2F6 using short-hairpin RNAs induces differentiation and maturation of 32Dcl3 mouse hematopoietic cells (FIG. 26).
(§1) Oligonucleotides targeting human or mouse EAR-2 were synthesized (Sigma), annealed and cloned into the pSiren vector (Clontech), after which sequence was verified (The Centre for Applied Genomics, Toronto). Virus was prepared by transient transfection of plasmid in the 293GPG cell line as described above. Knockdown was confirmed by western blot for these vectors in cell lines and by qPCR in bone marrow cells (data not shown and (17)).

[4] = test system: Murine bone marrow cells; test: shRNA knock down of NR2F6 in ex vivo bone marrow suspension culture (flow cytometry, morphology); assay type: cell-based, mouse
Description: Murine bone marrow cells were cultured in conditions that preserved stem cell maintenance (c-kit ligand; thrombopoietin; and Flt3 ligand in OP9 conditioned medium) and transduced with either an shRNA targeting NR2F6 or a scrambled control shRNA. Following seven days in culture cells were analysed by flow cytometry.

[5] = test system: bone marrow cells; test: Methylcellulose colony formation and replating after silencing of EAR-2 (NR2F6); assay type: cell-based, mouse; conditions: cytokines promoting multilineage or erythroid progenitor differentiation; FIG. 58
Description: We assessed the effects of silencing of EAR-2 expression on colony formation in vitro. […] In replating experiments we observed a significant decrease in secondary colonies in cells in which EAR-2 expression was silenced FIG. 59.
• The 293GPG retroviral packaging cell line (a gift of Richard Mulligan, Harvard University) was grown in DMEM medium supplemented with 10% FBS, tetracycline ([…]), G418 (0.3 mg/mL) and puromycin ([…]). Human EAR-2 cDNA (a kind gift from John Ladias, Harvard University) or Mus EAR-2 cDNA (a kind gift from, Curt D. Sigmund, University of Iowa) was subcloned into the pcDNA3.1V5/HIS vector (Invitrogen). […] Real time PCR was performed according to manufacturer's instructions using SYBR Green Master Mix (Applied Biosystems, Foster City, Calif.) and analyzed using the delta-delta CT method (16). Bone Marrow Transduction • Using the retroviral constructs described above, we forced expression of EAR-2 in primary murine BM cells and monitored the effects on differentiation using colony assays. […] Forty-eight hours after retroviral infection GFP-positive cells were collected by fluorescence activated cell sorting (FACS). […] GFP-positive cells were purified by fluorescence activated cell sorting (FACS) and cultured in methylcellulose medium containing hematopoietic growth factors that favored multilineage differentiation. […]

[6] = test system: U937 human myelomonocytic leukemia cells; test: shRNA knock down of NR2F6, differentiation by cytospins and flow cytometry; assay type: cell-based; conditions: vs pSiren universal negative control, FIG. 27
Description: Knock down of NR2F6 using short-hairpin RNAs induces terminal differentiation, blood cell maturation death of U937 human leukemia cells (FIG. 27).
as §1

CCCC(=O)[O-].[Na+] [sodium butyrate]
G-CSF induced differentiation (cell surface CD11b expression) [1]: showed recovery of G-CSF induced differentiation

CC1=C(/C=C/C(C)=C/C=C/C(C)=C/C(=O)O)C(C)(C)CCC1 [atRA, all-trans retinoic acid]
number of cells in S/G2/M phases of the cell cycle [2]: drastic decrease in the number of cells in S/G2/M phases

B1: Mus shNR2F6: short-hairpin RNA targeting mouse NR2F6, SEQ ID NO: 5, cloned into the pSiren vector (nucleic acid)
DNA: GATCCGCATTACGGCGTGTTCACCTTCAAGAGAGGTGAACACGCCGTAATGCTTTTTTCTAGAG
myeloid cell differentiation [3]: induces spontaneous myeloid cell differentiation
differentiation and maturation of bone marrow cells into neutrophils ([4]; flow cytometry (FIG. 30) and morphology (FIG. 31)): promoted the differentiation and maturation of bone marrow cells into neutrophils
number of immature cells (devoid of markers of lineage commitment) ([4]; seven days in culture, vs scrambled shRNA control, flow cytometry, FIG. 28): dramatically reduced the number of immature cells
number of stem cells (ckit+Sca-1+lineage-, KSL cells) ([4]; seven days in culture, vs scrambled shRNA control, flow cytometry, FIG. 29): dramatically reduced
colony size in methylcellulose [5]: increase in the size of colonies

B2: Human shNR2F6: short-hairpin RNA targeting human NR2F6, SEQ ID NO: 6, cloned into the pSiren vector (nucleic acid)
DNA: GATCCGCATTACGGTGTCTTCACCTTCAAGAGAGGTGAAGACACCGTAATGCTTTTTTCTAGAG
myeloid cell differentiation [6]: induces spontaneous myeloid cell differentiation

— US9091696B2, “Modulation of NR2F6 and methods and uses thereof” (Regen Biopharma, Inc., priority 2008, dated 2015)
